According to patent US20230265179A1 (TWIST BIOSCIENCE, published 2023):

T1: IL1RL1 (UniProt Q01638 19-328, limits assumed)
T1 construct: SPR analyte
T1 sequence (looked up): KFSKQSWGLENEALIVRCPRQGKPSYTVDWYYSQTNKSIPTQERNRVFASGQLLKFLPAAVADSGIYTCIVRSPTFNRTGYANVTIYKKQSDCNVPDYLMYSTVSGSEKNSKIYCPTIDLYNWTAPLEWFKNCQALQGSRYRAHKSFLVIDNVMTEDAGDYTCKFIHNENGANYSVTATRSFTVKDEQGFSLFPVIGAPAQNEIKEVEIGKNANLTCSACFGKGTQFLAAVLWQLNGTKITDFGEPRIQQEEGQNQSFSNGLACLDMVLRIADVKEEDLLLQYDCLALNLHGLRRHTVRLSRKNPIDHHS

T2: IL1RL1 over-expressed on Expi293 cells (UniProt Q01638 19-556, limits assumed)
T2 construct: whole, on cells; Target of the flow cytometry MFI ratio (over-expressing cells over parent cells); also called cytokine over-expressing Expi293 cells
T2 sequence (looked up): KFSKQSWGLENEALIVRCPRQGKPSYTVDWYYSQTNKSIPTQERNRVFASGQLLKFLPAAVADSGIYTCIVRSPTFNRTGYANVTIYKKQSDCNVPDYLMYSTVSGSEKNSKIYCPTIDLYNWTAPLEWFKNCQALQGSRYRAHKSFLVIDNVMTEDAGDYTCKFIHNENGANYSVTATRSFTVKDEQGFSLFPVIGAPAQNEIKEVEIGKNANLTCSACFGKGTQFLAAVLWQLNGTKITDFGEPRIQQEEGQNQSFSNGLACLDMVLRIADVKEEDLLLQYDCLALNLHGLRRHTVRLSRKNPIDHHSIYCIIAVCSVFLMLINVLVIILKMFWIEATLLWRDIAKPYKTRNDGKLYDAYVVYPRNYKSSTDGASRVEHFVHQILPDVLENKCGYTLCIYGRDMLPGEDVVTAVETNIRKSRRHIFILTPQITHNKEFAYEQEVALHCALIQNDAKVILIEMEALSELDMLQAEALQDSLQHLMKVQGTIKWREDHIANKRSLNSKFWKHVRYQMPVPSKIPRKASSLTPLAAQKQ


Experiments:
IL1RL1 = target: T1, IL1RL1; experiment: SPR (Carterra LSA), antibody amine-coupled, 1:1 model;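 note: HC30M sensor chip at 25 °C in HBS-TE, analyte at rising concentrations in buffer containing 0.5 mg/mL BSA, 5 min association then 15 min dissociation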
Procedure: SPR experiments were performed on a Carterra LSA SPR biosensor equipped with a HC30M chip at 25° C. in HBS-TE. Antibodies were diluted to 10 μg/mL and amine-coupled to the sensor chip by EDC/NHS activation, followed by ethanolamine HCl quenching. Increasing concentrations of analyte were flowed over the sensor chip in HBS-TE with 0.5 mg/mL BSA with 5-minute association and 15-minute dissociation. Following each injection cycle the surface was regenerated with 2× 30-second injections of IgG elution buffer (Thermo). Data were analyzed in Carterra's Kinetics Tool software with 1:1 binding model.

[1] = target: T2, IL1RL1 over-expressed on Expi293 cells; experiment: flow cytometry, 100 nM antibody, over-expressing Expi293 / parent cells
Procedure: All incubations and washes were in buffer containing PBS+1% BSA. MFI Ratio is defined by the mean fluorescence intensity (MFI) of the cytokine over-expressing Expi293 cell over the Expi293 parent cell. […] EC50 was calculated in GraphPad Prism.

Binder	Kd (IL1RL1)	koff (IL1RL1)	kon (IL1RL1)	100 nM FACS (MFI Ratio) [1]
IL1RL1-12 (Fc fusion, not shown: a dimerising Fc or GST, VHH-Fc on IgG2 Fc) VHH: EVQLVESGGGLVQPGGSLRLSCAASGSIFGLNAMGWFRQAPGKEREFVAAISRFGSTDYADSVKGRFTISADNSKNTAYLQMNSLKPEDTAVYYCARSYCTADSCYSSWFDPWGQGTLVTVSS	4.08 nM	0.000326 s⁻¹	80100 M⁻¹ s⁻¹	437 MFI ratio
IL1RL1-269 (antibody, V domains shown, IgG2) VH: EVQLLESGGGLVQPGGSLRLSCAASGFTFDRYRMMWVRQAPGKGLEWVSAITGSGGSTYYADSVKGRFTISRDNSKNTLYLQMNSLRAEDTAVYYCAKGLRRFDYWGQGTLVTVSS VL: DIQMTQSPSSLSASVGDRVTITCRASQSVDRYFNWYQQKPGKAPKLLIYGKNIRPSGVPSRFSGSGSGTDFTLTISSLQPEDFATYYCGQSYRYPLTFGQGTKVEIK				0.85 MFI ratio
IL1RL1-3 (Fc fusion, not shown: a dimerising Fc or GST) VHH: EVQLVESGGGLVQPGGSLRLSCAASGRTFSMGWFRQAPGKEREWVSSIGIAGTPTFYADSVKGRFTISADNSKNTAYLQMNSLKPEDTAVYYCASTDDYGVDWGQGTLVTVSS	≤ 0.0524 nM	≤ 1e-05 s⁻¹	191000 M⁻¹ s⁻¹	492 MFI ratio
IL1RL1-90 (Fc fusion, not shown: a dimerising Fc or GST, VHH-Fc on IgG2 Fc) VHH: EVQLVESGGGLVQPGGSLRLSCAASGVTLDLYAMGWFRQAPGKEREAVASISSSGSSIYYADSVKGRFTISADNSKNTAYLQMNSLKPEDTAVYYCAANYGGSVLYNWGQGTLVTVSS	≤ 0.078 nM	≤ 1e-05 s⁻¹	128000 M⁻¹ s⁻¹	105 MFI ratio
IL1RL1-8 (Fc fusion, not shown: a dimerising Fc or GST, VHH-Fc on IgG2 Fc) VHH: EVQLVESGGGLVQPGGSLRLSCAASGRTSNIYAMGWFRQAPGKEREFVASLSASGSLTWYADSVKGRFTISADNSKNTAYLQMNSLKPEDTAVYYCAANYGGSVLYNWGQGTLVTVSS	≤ 0.166 nM	≤ 1e-05 s⁻¹	60300 M⁻¹ s⁻¹	298 MFI ratio
IL1RL1-270 (antibody, V domains shown, IgG2) VH: EVQLLESGGGLVQPGGSLRLSCAASGFTFSRYFMGWVRQAPGKGLEWVSGITRSGSTNYRDSVKGRFTISRDNSKNTLYLQMNSLRAEDTAVYYCAKGPGTRGDYWGQGTLVTVSS VL: DIQMTQSPSSLSASVGDRVTITCRASQPIGPDLLWYQQKPGKAPKLLIYGASRLQRGVPSRFSGSGSGTDFTLTISSLQPEDFATYYCASRNGWNHVVFGQGTKVEIK				0.31 MFI ratio
IL1RL1-86 (Fc fusion, not shown: a dimerising Fc or GST, VHH-Fc on IgG2 Fc) VHH: EVQLVESGGGLVQPGGSLRLSCAASGGTFSTYAMGWFRQAPGKEREWVASISTSGSTITPYADSVKGRFTISADNSKNTAYLQMNSLKPEDTAVYYCAAIAYEEGVYRWDWGQGTLVTVSS	≤ 0.0762 nM	≤ 1e-05 s⁻¹	131000 M⁻¹ s⁻¹	204 MFI ratio
IL1RL1-2 (Fc fusion, not shown: a dimerising Fc or GST, VHH-Fc on IgG2 Fc) VHH: EVQLVESGGGLVQPGGSLRLSCAASGGTFSAYAMGWFRQAPGKEREWVASISTSGSTITPYADSVKGRFTISADNSKNTAYLQMNSLKPEDTAVYYCAAIAYEEGVYRWDWGQGTLVTVSS	0.265 nM	3.11e-05 s⁻¹	118000 M⁻¹ s⁻¹	277 MFI ratio
IL1RL1-81 (Fc fusion, not shown: a dimerising Fc or GST, VHH-Fc on IgG2 Fc) VHH: EVQLVESGGGLVQPGGSLRLSCAASGVTLDLYAMGWFRQAPGKEREWVASISTSGSTITPYADSVKGRFTISADNSKNTAYLQMNSLKPEDTAVYYCAAIAYEEGVYRWDWGQGTLVTVSS	0.285 nM	4.51e-05 s⁻¹	159000 M⁻¹ s⁻¹	217 MFI ratio
IL1RL1-52 (Fc fusion, not shown: a dimerising Fc or GST, VHH-Fc on IgG2 Fc) VHH: EVQLVESGGGLVQPGGSLRLSCAASGGTISTYAMGWFRQAPGKEREWVASISTSGSTITPYADSVKGRFTISADNSKNTAYLQMNSLKPEDTAVYYCAAIAYEEGVYRWDWGQGTLVTVSS	0.121 nM	3.48e-05 s⁻¹	288000 M⁻¹ s⁻¹	225 MFI ratio
IL1RL1-82 (Fc fusion, not shown: a dimerising Fc or GST, VHH-Fc on IgG2 Fc) VHH: EVQLVESGGGLVQPGGSLRLSCAASGRTFSTLAMGWFRQAPGKEREWVASISTSGSTITPYADSVKGRFTISADNSKNTAYLQMNSLKPEDTAVYYCAAIAYEEGVYRWDWGQGTLVTVSS	≤ 0.128 nM	≤ 1e-05 s⁻¹	78400 M⁻¹ s⁻¹	344 MFI ratio
IL1RL1-18 (Fc fusion, not shown: a dimerising Fc or GST, VHH-Fc on IgG2 Fc) VHH: EVQLVESGGGLVQPGGSLRLSCAASGVTLDLYAMGWFRQAPGKEREWVASISTSGSTITPYADSVKGRFTISADNSKNTAYLQMNSLKPEDTAVYYCAAIAHEEGVYRWDWGQGTLVTVSS	0.312 nM	3.95e-05 s⁻¹	126000 M⁻¹ s⁻¹	277 MFI ratio
IL1RL1-10 (Fc fusion, not shown: a dimerising Fc or GST, VHH-Fc on IgG2 Fc) VHH: EVQLVESGGGLVQPGGSLRLSCAASGRTSNIYAMGWFRQAPGKEREWVASISTSGSTITPYADSVKGRFTISADNSKNTAYLQMNSLKPEDTAVYYCAAVYVSTWGNGYDWGQGTLVTVSS	2.02 nM	0.000241 s⁻¹	119000 M⁻¹ s⁻¹	398 MFI ratio
IL1RL1-6 (Fc fusion, not shown: a dimerising Fc or GST, VHH-Fc on IgG2 Fc) VHH: EVQLVESGGGLVQPGGSLRLSCAASGRTISTYGMGWFRQAPGKEREWVSGINRDGSTYYADRVKGRFTISADNSKNTAYLQMNSLKPEDTAVYYCALRRLSPPPLLDWGQGTLVTVSS	0.149 nM	3.7e-05 s⁻¹	248000 M⁻¹ s⁻¹	128 MFI ratio
IL1RL1-5 (Fc fusion, not shown: a dimerising Fc or GST, VHH-Fc on IgG2 Fc) VHH: EVQLVESGGGLVQPGGSLRLSCAASGRTFSSIVMGWFRQAPGKEREMVAVIIDSRTTKYADSVKGRFTISADNSKNTAYLQMNSLKPEDTAVYYCAAVGGATTVTASEWDWGQGTLVTVSS	0.846 nM	0.000162 s⁻¹	191000 M⁻¹ s⁻¹	508 MFI ratio
IL1RL1-74 (Fc fusion, not shown: a dimerising Fc or GST, VHH-Fc on IgG2 Fc) VHH: EVQLVESGGGLVQPGGSLRLSCAASGFTFSSAIMGWFRQAPGKERELVAVIIDSRTTKYADSVKGRFTISADNSKNTAYLQMNSLKPEDTAVYYCAAVGGATTVTASEWDWGQGTLVTVSS	≤ 0.0505 nM	≤ 1e-05 s⁻¹	198000 M⁻¹ s⁻¹	521 MFI ratio
IL1RL1-4 (Fc fusion, not shown: a dimerising Fc or GST, VHH-Fc on IgG2 Fc) VHH: EVQLVESGGGLVQPGGSLRLSCAASGNAFRSTVMGWFRQAPGKEREFVAVIIDSRTTKYADSVKGRFTISADNSKNTAYLQMNSLKPEDTAVYYCAAVGGATTVTASEWDWGQGTLVTVSS	≤ 0.0574 nM	≤ 1e-05 s⁻¹	174000 M⁻¹ s⁻¹	472 MFI ratio
IL1RL1-53 (Fc fusion, not shown: a dimerising Fc or GST, VHH-Fc on IgG2 Fc) VHH: EVQLVESGGGLVQPGGSLRLSCAASGRTPSIIAMGWFRQAPGKERELVAVIIDSRTTKYADSVKGRFTISADNSKNTAYLQMNSLKPEDTAVYYCAAVGGATTVTASEWDWGQGTLVTVSS	0.927 nM	0.000267 s⁻¹	289000 M⁻¹ s⁻¹	441 MFI ratio
IL1RL1-11 (Fc fusion, not shown: a dimerising Fc or GST, VHH-Fc on IgG2 Fc) VHH: EVQLVESGGGLVQPGGSLRLSCAASGRTFNWYAMGWFRQAPGKEREWVSSIGIAGTPTFYADSVKGRFTISADNSKNTAYLQMNSLKPEDTAVYYCAAVSSNSETFDWGQGTLVTVSS	12.9 nM	0.000681 s⁻¹	52800 M⁻¹ s⁻¹	446 MFI ratio
IL1RL1-262 (antibody, V domains shown, IgG2) VH: EVQLLESGGGLVQPGGSLRLSCAASGFTFSRYAMNWVRQAPGKGLEWVSAISGSGGNTYYADSVKGRFTISRDNSKNTLYLQMNSLRAEDTAVYYCARVWRNSLDYWGQGTLVTVSS VL: DIQMTQSPSSLSASVGDRVTITCSGDRLGEKYVSWYQQKPGKAPKLLIYENNNRPSGVPSRFSGSGSGTDFTLTISSLQPEDFATYYCVARAVRGNPHVLFGQGTKVEIK				6.04 MFI ratio
IL1RL1-7 (Fc fusion, not shown: a dimerising Fc or GST, VHH-Fc on IgG2 Fc) VHH: EVQLVESGGGLVQPGGSLRLSCAASGRTSNIYAMGWFRQAPGKEREPVASITPGGRFPAYADSVKGRFTISADNSKNTAYLQMNSLKPEDTAVYYCSTLYYSGLDPVDYWGQGTLVTVSS	≤ 0.0757 nM	≤ 1e-05 s⁻¹	132000 M⁻¹ s⁻¹	586 MFI ratio
IL1RL1-1 (Fc fusion, not shown: a dimerising Fc or GST, VHH-Fc on IgG2 Fc) VHH: EVQLVESGGGLVQPGGSLRLSCAASGFTLDAWPMSWFRQAPGKEREVVAVIYTSDGSTYYADSVKGRFTISADNSKNTAYLQMNSLKPEDTAVYYCAASKWYGGFGDTDIEWGQGTLVTVSS	0.584 nM	0.000101 s⁻¹	172000 M⁻¹ s⁻¹	660 MFI ratio
